Measured values reported in article doi:10.1101/2025.01.06.631460 (bioRxiv, 2025).

Target: the molecule itself
Test: single molecule photobleaching

B1: CNGC14-GFP (natural protein, Arabidopsis thaliana, UniProt Q9SJA4 1-726, looked up)
chain: MEFKRDNTVRFYGDEKQTIEVGEKRVPLFKSTTAPFMKQEVLPKKSKTRLKIPRFGRFKVFPENFEIERDKILDPGGDAVLQWNRVFLFWCLVALYVDPLFFFLSSVKRIGRSSCMTTDLKLGIVITFFRTLADLFYVLHIVIKFRTAYVSRTSRVFGRGELVKDPKLIARRYLRSDFIVDLIACLPLPQIVSWFILPSIRSSHSDHTTNALVLIVLVQYIPRLYLIFPLSAEIIKATGVVTTTAWAGAAYNLLQYMLASHILGSAWYLLSIERQATCWKAECHKESVPLQCVTDFFDCGTLHRDDRNNWQNTTVVFSNCDPSNNIQFTFGIFADALTKNVVSSPFLEKYLYCLWFGLQNLSSYGQNLSTSTSVLETMFAILVAIFGLVLFALLIGNMQTYLQSITVRLEEWRLKRRDTEEWMGHRLLPQNLRERVRRFVQYKWLATRGVDEETILHSLPADLRRDIQRHLCLDLVRRVPLFAQMDDQLLDAICERLASSLSTQGNYIVREGDPVTEMLFIIRGKLESSTTNGGRTGFFNSITLRPGDFCGEELLAWALLPKSTVNLPSSTRTVRALEEVEAFALQAGDLKFVANQFRRLHSKKLQHTFRYYSHQWRTWAACFVQVAWRRYKRKKLAKSLSLAESFSSYDEEEAVAVAATEEMSHEGEAQSGAKARHHTSNVKPHFAATILASRFAKNTRRTAHKLKDVEIPMLPKPDEPDFSVDD
stoichiometry N: 4
